Tests used:
[1] = target: T1, Hu/Cy/Rh ROR1 - His (human/cynomolgus/rhesus (Hu/Cy/Rh), UniProt Q01973 30-403, limits assumed); test: SPR (Carterra); cell 'Kinetics (KD)' of 4A5 in the row and the column heads of the binning table; no unit is printed on the sheet, the four other KD cells equal the KD (M) values of Table 2 for Hu/Cy/Rh ROR1 - His
T1 construct: Purified His-tagged protein; also called human/cyno/rhesus ROR-1; not shown: His tag

[2] = target: T2, human ROR-1 endogenously expressed on JeKo-1 and MDA-MB-468 cells (human, UniProt Q01973 30-937); test: flow cytometry, antibody titration on ROR-1 positive JeKo-1 cells, secondary antibody staining, Net MFI [right panel]
T2 construct: whole, on cells; also called ROR-1 receptor; receptor tyrosine kinase like orphan receptor 1
Excerpt: FIG. 27 illustrates a measurement of cell binding saturation data for the anti-ROR-1 antibodies generated by the methods described herein. […] Cells were washed, stained with secondary antibody and cell binding saturation was detected by flow cytometry and reported as mean fluorescent intensity (MFI).
A cell binding saturation assay was developed to evaluate how well the anti_ROR-1 antibodies developed in Example 28 bound to endogenously expressed extracellular ROR-1 protein on cell lines. […] Briefly, two ROR-1 positive cell lines, JeKo-1 and MDA-MB-468, were incubated in a titration series concentration of each antibody construct. Cells were then washed and subjected to secondary antibody staining and detection by flow cytometry. Mean fluorescence (MFI) was determined by analysis on cytometer software. […] (See FIG. 27).

[3] = target: T2, human ROR-1 endogenously expressed on …; test: cellular binning by flow cytometry on MDA-MB-468 cells; antibody titrated, stained with labelled secondary antibody, % Top MFI [29C middle panel]
Experimental: (§1) Next, the anti-ROR-1 antibodies were fluorescently labeled with a secondary antibody.
(§2) In Step 2, a fluorescently labeled secondary antibody recognizing the novel antibodies was incubated with the samples.

[4] = target: T2, human ROR-1 endogenously expressed on …; test: cellular binning by flow cytometry on MDA-MB-468 cells; antibody titrated, stained with labelled secondary antibody, % Top MFI [29D middle panel]
Experimental: as §1, §2

[5] = target: T2, human ROR-1 endogenously expressed on …; test: cellular binning by flow cytometry on MDA-MB-468 cells; ATX-P-885 titrated first, then a saturating dose of the competitor Dy650-UC961; partial inhibition [29C middle panel]
Experimental: as §1, §2

[6] = target: T2, human ROR-1 endogenously expressed on …; test: cellular binning by flow cytometry on MDA-MB-468 cells; antibody titrated, stained with labelled secondary antibody, % Top MFI [29C left panel]
Experimental: as §1, §2

[7] = target: T2, human ROR-1 endogenously expressed on …; test: cellular binning by flow cytometry on MDA-MB-468 cells; antibody titrated, stained with labelled secondary antibody, % Top MFI [29D left panel]
Experimental: as §1, §2

[8] = target: T2, human ROR-1 endogenously expressed on …; test: cellular binning by flow cytometry on MDA-MB-468 cells; ATX-P-875 titrated first, then a saturating dose of the competitor 4A5-PE [29D left panel]
Experimental: as §1, §2

[9] = target: T2, human ROR-1 endogenously expressed on …; test: cell-based or functional assay
[10] = target: T1, Hu/Cy/Rh ROR1 - His; test: SPR, binding to purified His-tagged protein
[11] = target: T2, human ROR-1 endogenously expressed on …; test: flow cytometry, antibody titration on ROR-1 positive JeKo-1 cells, secondary antibody staining, Net MFI [left panel]

B1: 4A5 (antibody, V domains shown)
VH: EVKLVESGGGLVKPGGSLKLSCAASGFTFSSYAMSWVRQIPEKRLEWVASISRGGTTYYPDSVKGRFTISRDNVRNILYLQMSSLRSEDTAMYYCGRYDYDGYYAMDYWGQGTSVTVSS
VL: DIKMTQSPSSMYASLGERVTITCKASPDINSYLSWFQQKPGKSPKTLIYRANRLVDGVPSRFSGGGSGQDYSLTINSLEYEDMGIYYCLQYDEFPYTFGGGTKLEMK
[1]
  Kd: 2.81 nM

B2: ATX-P-885 (antibody, human IgG1, kappa, V domains shown)
VH: QVQLQQWGAGLLKPSETLSLTCAVYGGSFSGYYWSWIRQPPGKGLEWIGEINHSGSTNYNPSLKSRVTISVDTSKNQFSLKLSSVTAADTAVYYCAREGVYEDYWGQGTLVTVSS
VL: EIVLTQSPATLSLSPGERATLSCRASQSVSNYLAWYQQKPGQAPRLLIYDAYNRATGIPARFSGSGSGTDFTLTISSLEPEDFAVYYCQQRSNWPLTFGQGTRLEIKR
notes: also called mAb B
[2]
  EC50 (read off the curve): ~0.3 nM
[3]
  EC50 (read off the curve): ~3 nM
[4]
  EC50 (read off the curve): ~2 nM
[5]
  IC50 (read off the curve): ~3 nM

B3: ATX-P-875 (antibody, human IgG1, kappa, V domains shown)
VH: not shown
VL: DIQMTQSPSSLSASVGDRVTITCRASQSISSYLNWYQQKPGKAPKLLIYAASSLQSGVPSRFSGSGSGTDFTLTISSLQPEDFATYYCQQYDNLPITFGQGTRLEIKR
notes: also called mAb A
[6]
  EC50 (read off the curve): ~0.9 nM
[7]
  EC50 (read off the curve): ~0.6 nM
[8]
  IC50 (read off the curve): ~0.7 nM

B4: UC961 (ATX-P-453) (antibody, V domains shown)
VH: QVQLQESGPGLVKPSQTLSLTCTVSGYAFTAYNIHWVRQAPGQGLEWMGSFDPYDGGSSYNQKFKDRLTISKDTSKNQVVLTMTNMDPVDTATYYCARGWYYFDYWGHGTLVTVSS
VL: DIVMTQTPLSLPVTPGEPASISCRASKSISKYLAWYQQKPGQAPRLLIYSGSTLQSGIPPRFSGSGYGTDFTLTINNIESEDAAYYFCQQHDESPYTFGEGTKVEIK
[9]
  percent receptor internalization relative to time zero (flow cytometry of antibody remaining on the surface, JeKo-1 and MDA-MB-468): ≥ 75%
[10]
  Kd: 4.69 nM
  koff: 0.00591 s⁻¹
  kon: 1.26e+06 M⁻¹ s⁻¹
[11]
  EC50 (read off the curve): ~0.02 nM
[2]
  EC50 (read off the curve): ~0.1 nM

Reference: patent publication US20230123041A1 (IMMUNOME, published 2023)
